Experimental findings from publication PMC5293408 (Biochemistry, 2016) are described below.

The target in series [1] is T1, hUGDHA136M (human UDP-glucose dehydrogenase A136M) (Homo sapiens, UniProt O60701, A136M).
T1 sequence (O60701 1-494 A136M): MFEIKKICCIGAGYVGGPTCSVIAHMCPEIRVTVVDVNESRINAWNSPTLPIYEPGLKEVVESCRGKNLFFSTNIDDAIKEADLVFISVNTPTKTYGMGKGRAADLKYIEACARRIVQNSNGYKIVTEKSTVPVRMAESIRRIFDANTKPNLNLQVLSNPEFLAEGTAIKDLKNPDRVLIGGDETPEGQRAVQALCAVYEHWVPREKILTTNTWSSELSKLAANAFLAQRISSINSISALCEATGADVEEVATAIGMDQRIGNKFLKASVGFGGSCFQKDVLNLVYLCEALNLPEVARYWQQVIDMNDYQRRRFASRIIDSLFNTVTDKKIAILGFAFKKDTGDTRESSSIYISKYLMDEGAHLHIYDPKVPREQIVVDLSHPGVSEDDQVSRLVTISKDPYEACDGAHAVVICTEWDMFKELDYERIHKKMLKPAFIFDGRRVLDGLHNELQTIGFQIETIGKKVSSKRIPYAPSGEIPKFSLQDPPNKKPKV
In words: steady-state kinetics, global fit of competitive inhibition. Type of series: biochemical.

Substrate in series [2]: NC(=O)c1ccc[n+]([C@@H]2O[C@H](COP(=O)([O-])OP(=O)(O)OC[C@H]3O[C@@H](n4cnc5c(N)ncnc54)[C@H](O)[C@@H]3O)[C@@H](O)[C@H]2O)c1
Put plainly: steady-state NAD+ saturation kinetics. Type of series: biochemical, Homo sapiens. To be noted: NAD+ binding domain (NB); varied: cofactor.

Series [3] concerns the molecule itself. In words: AUC.
Series [4] concerns the molecule itself. Put plainly: AUC. The source holds these as a separate data set.

Numbering of substitutions follows the chain as printed. Names may count otherwise. “And” between values parts separate entries of the source, which are not always exact repeats. Equal values may be shown once. Read-outs that look alike come from different tables or passages of the source.

In general, Ki refers to the dissociation constant of the complex between target and ligand, obtained from inhibition or displacement. The Km is the substrate concentration at which the rate is half of its maximum. The term stoichiometry N denotes a count of units in the complex or per binding partner.

In turn, `O=c1ccn([C@@H]2O[C@H](COP(=O)(O)OP(=O)(O)O[C@H]3OC[C@@H](O)[C@H](O)[C@H]3O)[C@@H](O)[C@H]2O)c(=O)[nH]1` [UDP-xylose] displayed an inhibition constant Ki in series [1] of 4.2 µM.

B1: Human UDP-glucose dehydrogenase with the A136M substitution (enzyme)
chain: T1 sequence (O60701 1-494 A136M)
Turning to B1, in series [2], the Michaelis-Menten constant (Km) turned out to be 90 µM. Besides, in the series “AUC [3]”, the “stoichiometry N” value is 6 and 2 and 4.

B2: Human UDP-glucose dehydrogenase (enzyme, UniProt O60701 1-494, looked up)
chain: T1 sequence (O60701 1-494 A136M) with M136A
With B2, the “stoichiometry N” value is 2 and 4 in the series “AUC [4]”; 6 in the series “AUC [3]”.
